Experimental data: patent publication US10188706B2, “Plasminogen activator mutants as anti-fibrinolytic agents” (HADASIT MEDICAL RESEARCH SERVICES & DEVELOPMENT LIMITED, priority 2012, dated 2019)
Entries after “also recorded” stand apart in the source; their conditions may differ.

Key:
tPA = assay: Plasminogen activator activity, chromogenic assay without fibrin, activation by tPA; format: biochemical, human; details: FIG. 2D
Experimental: (§1) Plasminogen Activator Activity
(§2) Plasminogen activator activity was determined by adding tPA (50 nM) or uPA (20 nM), to a reaction mixture containing Glu-plasminogen and the plasmin chromogenic substrate Spectrazyme PL (100 μM) in phosphate-buffered saline (PBS) at 37° C., and the light absorbance at 405 nm was measured continuously over time. The initial velocities of plasmin generation at the different conditions were calculated from the change in the A405 nm over time. The initial velocity of the reaction at each plasminogen concentration was obtained by calculating the change in the rate of A405 over different time intervals and the results were expressed as the change in optical density (ΔOD) per minute, which represents the slope of the initial velocity of plasminogen activation (Higazi A et al., J Biol Chem. (1995), 270(29):17375-80).

reteplase = reteplase (Homo sapiens, UniProt P00750); assay: Fibrinolysis assay in human plasma derived clots, lysis by reteplase; format: biochemical; details: reteplase 20 nM, mutant 10 nM, FIG. 2B
Experimental: (§3) Fibrinolysis Assay in Human Plasma Derived Clots
(§4) Clots were formed by placing human plasma (200 μL) in 16-mm diameter tissue culture wells flowed by adding thrombin (0.4 U/mL final concentration). Fibrinolysis was measured as described in Higazi A A et al., Blood (1998), 92(6):2075-83). Briefly, 10 μL tPA or uPA were placed over the plasma clots for 2 hours at 37° C., photographed and the diameter of the wholes were determined.

WT-tPA = assay: Fibrinolysis assay in human plasma derived clots, lysis by WT-tPA; format: biochemical
Experimental: as §3, §4

uPA [1] = target: T1, uPA (Homo sapiens, UniProt P00749); assay: Plasminogen activator activity, chromogenic assay without fibrin, activation by uPA; format: biochemical; details: FIG. 2D
T1 construct: Single-chain urokinase (uPA) was purified, characterized as previously reported; made in house
Experimental: as §1, §2

WT mice subjected to CHI = assay: Closed head injury (CHI) model of TBI in WT mice; format: in vivo, mouse; details: for neuroprotection (neurological severity score, NSS): given 2 hrs after CHI
Experimental: Eight to twelve weeks old C57 mice obtained from Harlan, Israel. Mice were administered standard laboratory chow and water ad libitum, and kept in controlled temperature and light conditions. Animal experiments were carried out according to the guidelines of the Hebrew University-Institutional Committee for Care and Use of Laboratory Animals, and with the committee's approval.
Closed Head Injury (CHI) Model
Head trauma was induced by using a modified weight-drop device, as previously described (Chen Y. et al. (1996) J. Neurotrauma, 13:557-568). Briefly, after induction of ether anesthesia, a midline longitudinal incision was made, the skin was retracted and the skull was exposed. The left anterior frontal area was identified and a Teflon tipped cone (2-mm diameter) was placed 1 mm lateral to the midline, in the midcoronal plane. The head was held in place manually and a 75-g weight was dropped on the cone from a height of 18 cm, resulting in focal injury to the left hemisphere. After trauma, the mice received supporting oxygenation with 95% 02 for no longer than 2 min and were then returned to their cages. In sham controls only anesthesia and skin incision were carried out.

uPA [2] = target: T1, uPA; assay: Fibrinolysis assay in human plasma derived clots, lysis by uPA; format: biochemical; details: uPA 50 nM; mutant 50 nM; FIG. 2A, 2B
Experimental: as §3, §4

[3] = mutant 100 nM added together with TA

Sequence of WT-tPA (P00750 36-562): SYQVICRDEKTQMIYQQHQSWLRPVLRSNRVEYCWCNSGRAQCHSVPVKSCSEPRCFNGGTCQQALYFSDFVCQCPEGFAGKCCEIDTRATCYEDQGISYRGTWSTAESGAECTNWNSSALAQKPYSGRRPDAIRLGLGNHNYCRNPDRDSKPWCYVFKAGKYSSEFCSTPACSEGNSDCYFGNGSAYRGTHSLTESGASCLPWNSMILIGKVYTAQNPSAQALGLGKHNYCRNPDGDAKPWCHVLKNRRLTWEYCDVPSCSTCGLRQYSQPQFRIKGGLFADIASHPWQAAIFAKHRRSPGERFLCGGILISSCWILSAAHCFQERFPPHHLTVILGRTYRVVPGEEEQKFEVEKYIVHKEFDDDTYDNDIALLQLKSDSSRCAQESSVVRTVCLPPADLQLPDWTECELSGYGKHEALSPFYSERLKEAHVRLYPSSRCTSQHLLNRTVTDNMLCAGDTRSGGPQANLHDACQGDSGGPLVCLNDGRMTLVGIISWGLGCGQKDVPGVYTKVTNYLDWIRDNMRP

B1: tPA-S^481A-DS: tPA double mutant, Ser481 to Ala and KHRR299-302 to AAAA (PAI-1 docking site); SEQ ID NO. 2 or 13 (protein, listed as Homo sapiens)
chain: GARSYQVICRDEKTQMIYQQHQSWLRPVLRSNRVEYCWCNSGRAQCHSVPVKSCSEPRCFNGGTCQQALYFSDFVCQCPEGFAGKCCEIDTRATCYEDQGISYRGTWSTAESGAECTNWNSSALAQKPYSGRRPDAIRLGLGNHNYCRNPDRDSKPWCYVFKAGKYSSEFCSTPACSEGNSDCYFGNGSAYRGTHSLTESGASCLPWNSMILIGKVYTAQNPSAQALGLGKHNYCRNPDGDAKPWCHVLKNRRLTWEYCDVPSCSTCGLRQYSQPQFRIKGGLFADIASHPWQAAIFAAAAASPGERFLCGGILISSCWILSAAHCFQERFPPHHLTVILGRTYRVVPGEEEQKFEVEKYIVHKEFDDDTYDNDIALLQLKSDSSRCAQESSVVRTVCLPPADLQLPDWTECELSGYGKHEALSPFYSERLKEAHVRLYPSSRCTSQHLLNRTVTDNMLCAGDTRSGGPQANLHDACQGDAGGPLVCLNDGRMTLVGIISWGLGCGQKDVPGVYTKVTNYLDWIRDNMRP
notes: tPA double mutant, Ser481 to Ala and KHRR299-302 to AAAA (PAI-1 docking site); 2 or 13
B1 was tested, and the “plasminogen activation by tPA in the absence of fibrin, in the presence of TA” value (tPA; [3]) was “inhibited the plasminogen activation induced by tPA”, the “plasminogen activation by tPA in the absence of fibrin (change in OD per minute)” value (tPA; plasminogen 500 nM, WT-tPA 50 nM, mutants 100 nM or TA 200 nM alone) was “Neither tPA-S^481A nor tPA-S^481A-DS inhibited” and the “clot lysis induced by reteplase” value (reteplase) was “inhibit the clot lysis induced by reteplase”. For the same molecule, the “potency as inhibitor of fibrinolysis compared with TA” value (WT-tPA; TA tested at its maximal inhibitory concentration, FIG. 2B) was “more potent inhibitors of fibrinolysis than TA”, the “lysis of human plasma derived clots by WT-tPA” value (WT-tPA; WT-tPA 20 nM, mutant 50 nM, FIG. 2A, 2B) was “Identical anti-fibrinolytic activity; also recorded: inhibited” and the “plasminogen activation by uPA in the absence of fibrin, in the presence of TA” value (uPA [1]; [3]) was “inhibited the activation of plasminogen by uPA”. For the same molecule, the “plasminogen activation by uPA in the absence of fibrin (change in OD per minute)” value (uPA [1]; plasminogen 500 nM, uPA 20 nM, mutants 100 nM or TA 200 nM alone) was “Neither tPA-S^481A nor tPA-S^481A-DS inhibited”, the “intracerebral hemorrhage increased by injected WT-tPA post CHI” value (WT mice subjected to CHI; WT mice given WT-tPA 5 mg/kg immediately after CHI plus equimolar mutant) was “could be inhibited” and the “plasma levels of d-Dimers post CHI” value (WT mice subjected to CHI; WT mice, 1 mg/kg IV, measured 2 hours after CHI, FIG. 4A, 1 mg/kg) was “significantly attenuated the increase in d-Dimers; also recorded: had the same effect on d-Dimers and post TBI thrombocytopenia”. For the same molecule, the “platelet counts / thrombocytopenia post CHI” value (WT mice subjected to CHI; WT mice, 1 mg/kg IV, measured 2 hours after CHI, FIG. 4B, 1 mg/kg) was “prevented the development of thrombocytopenia; also recorded: had the same effect on d-Dimers and post TBI thrombocytopenia”, the “CSF fibrinolytic activity post CHI” value (WT mice subjected to CHI; WT mice, IV after CHI, CSF obtained 2 hours after CHI, tested on plasma derived clots) was “inhibited CSF fibrinolytic activity” and the “intracerebral hemorrhage (MRI, extravasation of Hgb) post CHI” value (WT mice subjected to CHI; WT mice, IV immediately after or 2 hrs after CHI, Hgb at 2 or 8 hrs, MRI at 24 hrs) was “significantly attenuated the expansion of intracerebral hemorrhage; also recorded: decreased ICH to the same extent as tPA-S^481A”. The “inhibition of intracerebral hemorrhage compared with combination of TA and aprotinin” value (WT mice subjected to CHI; combination in optimal concentrations, FIG. 3B) was “comparable to the inhibition induced by a combination of TA and aprotinin”, the “neuroprotection (neurological severity score, NSS)” value (WT mice subjected to CHI; FIG. 5) was “the difference in neuroprotection provided by the two tPA variants vanished” and the “neuroprotection (neurological severity score, NSS)” value (WT mice subjected to CHI; FIG. 5, listed as tPA^Ser481Ala-DS) was “lower neurological severity scores (NSS)”. For the same molecule, the “neuroprotection (neurological severity score, NSS, 24 hours after CHI)” value (WT mice subjected to CHI; given IV immediately after CHI, 1 mg/kg, FIG. 5) was “provided less neuroprotection than tPA-S^481A”, the “potency as inhibitor of intracerebral hemorrhage compared with TA or aprotinin” value (WT mice subjected to CHI; optimal concentrations of TA or aprotinin, FIG. 3B) was “more potent inhibitors of intracerebral hemorrhage than optimal concentrations of TA or aprotinin” and the “lysis of human plasma derived clots by uPA” value (uPA [2]) was “Identical anti-fibrinolytic activity; also recorded: inhibited”.
